B1: SH3BP2 peptide 408-423 (SH3 domain-binding protein 2), 16-mer library wild type / TNKS ANK (TNKS 12 ANK repeats, residues 174-649) (parent complex)
chain 1: PQLPHLQRSPPDGQSF
chain 2: TGVPAVSGALRELLEACRNGDVSRVKRLVDAANVNAKDMAGRKSSPLHFAAGFGRKDVVEHLLQMGANVHARDDGGLIPLHNACSFGHAEVVSLLLCQGADPNARDNWNYTPLHEAAIKGKIDVCIVLLQHGADPNIRNTDGKSALDLADPSAKAVLTGEYKKDELLEAARSGNEEKLMALLTPLNVNCHASDGRKSTPLHLAAGYNRVRIVQLLLQHGADVHAKDKGGLVPLHNACSYGHYEVTELLLKHGACVNAMDLWQFTPLHEAASKNRVEVCSLLLSHGADPTLVNCHGKSAVDMAPTPELRERLTYEFKGHSLLQAAREADLAKVKKTLALEIINFKQPQSHETALHCAVASLHPKRKQVTELLLRKGANVNEKNKDFMTPLHVAAERAHNDVMEVLHKHGAKMNALDTLGQTALHRAALAGHLQTCRLLLSYGSDPSIISLQGFTAAQMGNEAVQQILSESTPIRTSD

The experiment covers variants of B1. Nature of the experiment: proteomic peptide phage display deep mutational scan (ProP-PD DMS): M13 P8 16-mer library selected against immobilised GST-tagged bait for four days (rounds), NGS of the eluted pools per day and pseudo-replica; bait immobilised on MaxiSorp plates (10 µg), library pre-cleared on GST, 2 h binding at 4 °C, five washes; one round per day, days 1-4; value from days 2 and 3.
As to chain 1 PQLPHQQRSPPDGQSF [chain 1 L6Q], the screen value is 0.000145 average fractional NGS count over selection days 2 and 3 (reads of this peptide / all reads for the bait, averaged over ….
As for chain 1 PQLPHTQRSPPDGQSF [chain 1 L6T], the figure is 0.000389 average fractional NGS count over selection days 2 and 3 (reads of this peptide / all reads for the bait, averaged over …; as for chain 1 PQLPHPQRSPPDGQSF [chain 1 L6P], 0.000739 average fractional NGS count over selection days 2 and 3 (reads of this peptide / all reads for the bait, averaged over …; as for chain 1 PQLPHWQRSPPDGQSF [chain 1 L6W], 0.000131 average fractional NGS count over selection days 2 and 3 (reads of this peptide / all reads for the bait, averaged over ….
As for chain 1 PQLPHNQRSPPDGQSF [chain 1 L6N], the screen value was 0.000459 average fractional NGS count over selection days 2 and 3 (reads of this peptide / all reads for the bait, averaged over ….
As for chain 1 PQLPHLQRSPPDGQSP [chain 1 F16P], the figure is 0.0012 average fractional NGS count over selection days 2 and 3 (reads of this peptide / all reads for the bait, averaged over ….
As for chain 1 PQLPHLQRSPPDGQSW [chain 1 F16W], the figure is 0.000272 average fractional NGS count over selection days 2 and 3 (reads of this peptide / all reads for the bait, averaged over ….
To chain 1 PQLPHLQRSPPDGQSI [chain 1 F16I] belongs 0.000483 average fractional NGS count over selection days 2 and 3 (reads of this peptide / all reads for the bait, averaged over …; to chain 1 PQLPHLQRSPPDGQSH [chain 1 F16H], 0.00294 average fractional NGS count over selection days 2 and 3 (reads of this peptide / all reads for the bait, averaged over ….
Take chain 1 PQLPHLQRSPPDGQST [chain 1 F16T]: the screen value is 0.000194 average fractional NGS count over selection days 2 and 3 (reads of this peptide / all reads for the bait, averaged over ….
chain 1 PQLPHLQRSPPDGQSR [chain 1 F16R]: the screen value is 0.00135 average fractional NGS count over selection days 2 and 3 (reads of this peptide / all reads for the bait, averaged over ….
As for chain 1 PQLPHLQRSPPDGQSG [chain 1 F16G], the figure is 0.000376 average fractional NGS count over selection days 2 and 3 (reads of this peptide / all reads for the bait, averaged over …; as for chain 1 PQLPHLQRSPPDGQSV [chain 1 F16V], 0.00271 average fractional NGS count over selection days 2 and 3 (reads of this peptide / all reads for the bait, averaged over …; as for chain 1 PQLPHLQRSPPDGQSN [chain 1 F16N], 0.000118 average fractional NGS count over selection days 2 and 3 (reads of this peptide / all reads for the bait, averaged over ….
As for chain 1 PQLPHLQRSPPDGQSY [chain 1 F16Y], the figure is 0.011 average fractional NGS count over selection days 2 and 3 (reads of this peptide / all reads for the bait, averaged over …; as for chain 1 PQLPHLQRSPPDGQSL [chain 1 F16L], 0.00209 average fractional NGS count over selection days 2 and 3 (reads of this peptide / all reads for the bait, averaged over ….
To chain 1 PQLPHLIRSPPDGQSF [chain 1 Q7I] belongs 0.000144 average fractional NGS count over selection days 2 and 3 (reads of this peptide / all reads for the bait, averaged over …; to chain 1 PQLPHLTRSPPDGQSF [chain 1 Q7T], 0.000465 average fractional NGS count over selection days 2 and 3 (reads of this peptide / all reads for the bait, averaged over ….
With chain 1 PQLPHLWRSPPDGQSF [chain 1 Q7W], the screen value was 0.000561 average fractional NGS count over selection days 2 and 3 (reads of this peptide / all reads for the bait, averaged over ….
To chain 1 PQLPHLERSPPDGQSF [chain 1 Q7E] belongs 0.000295 average fractional NGS count over selection days 2 and 3 (reads of this peptide / all reads for the bait, averaged over ….
For chain 1 PQLPHLGRSPPDGQSF [chain 1 Q7G], the screen value was 0.00109 average fractional NGS count over selection days 2 and 3 (reads of this peptide / all reads for the bait, averaged over ….
To chain 1 PQLPHLDRSPPDGQSF [chain 1 Q7D] belongs 0.00248 average fractional NGS count over selection days 2 and 3 (reads of this peptide / all reads for the bait, averaged over ….
chain 1 PQLPHLYRSPPDGQSF [chain 1 Q7Y]: the screen value was 0.00125 average fractional NGS count over selection days 2 and 3 (reads of this peptide / all reads for the bait, averaged over ….
To chain 1 PQLPHLKRSPPDGQSF [chain 1 Q7K] belongs 0.000537 average fractional NGS count over selection days 2 and 3 (reads of this peptide / all reads for the bait, averaged over …; to chain 1 PQLPHLLRSPPDGQSF [chain 1 Q7L], 0.00476 average fractional NGS count over selection days 2 and 3 (reads of this peptide / all reads for the bait, averaged over …; to chain 1 PDLPHLQRSPPDGQSF [chain 1 Q2D], 0.00112 average fractional NGS count over selection days 2 and 3 (reads of this peptide / all reads for the bait, averaged over ….
To chain 1 PNLPHLQRSPPDGQSF [chain 1 Q2N] belongs 0.000225 average fractional NGS count over selection days 2 and 3 (reads of this peptide / all reads for the bait, averaged over ….
To chain 1 PELPHLQRSPPDGQSF [chain 1 Q2E] belongs 0.000696 average fractional NGS count over selection days 2 and 3 (reads of this peptide / all reads for the bait, averaged over …; to chain 1 PKLPHLQRSPPDGQSF [chain 1 Q2K], 0.000141 average fractional NGS count over selection days 2 and 3 (reads of this peptide / all reads for the bait, averaged over …; to chain 1 PLLPHLQRSPPDGQSF [chain 1 Q2L], 0.00153 average fractional NGS count over selection days 2 and 3 (reads of this peptide / all reads for the bait, averaged over ….
On to chain 1 PFLPHLQRSPPDGQSF [chain 1 Q2F], for which the screen value is 0.000172 average fractional NGS count over selection days 2 and 3 (reads of this peptide / all reads for the bait, averaged over ….
chain 1 PALPHLQRSPPDGQSF [chain 1 Q2A]: the screen value is 0.000765 average fractional NGS count over selection days 2 and 3 (reads of this peptide / all reads for the bait, averaged over ….
To chain 1 PPLPHLQRSPPDGQSF [chain 1 Q2P] belongs 0.00147 average fractional NGS count over selection days 2 and 3 (reads of this peptide / all reads for the bait, averaged over ….
As for chain 1 PGLPHLQRSPPDGQSF [chain 1 Q2G], the figure is 0.000233 average fractional NGS count over selection days 2 and 3 (reads of this peptide / all reads for the bait, averaged over …; as for chain 1 PMLPHLQRSPPDGQSF [chain 1 Q2M], 0.000169 average fractional NGS count over selection days 2 and 3 (reads of this peptide / all reads for the bait, averaged over …; as for chain 1 PSLPHLQRSPPDGQSF [chain 1 Q2S], 0.00172 average fractional NGS count over selection days 2 and 3 (reads of this peptide / all reads for the bait, averaged over ….
As for chain 1 PQLPHLQRSPPDGQLF [chain 1 S15L], the figure is 0.00151 average fractional NGS count over selection days 2 and 3 (reads of this peptide / all reads for the bait, averaged over …; as for chain 1 PQLPHLQRSPPDGQPF [chain 1 S15P], 0.000545 average fractional NGS count over selection days 2 and 3 (reads of this peptide / all reads for the bait, averaged over …; as for chain 1 PQLPHLQRSPPDGQIF [chain 1 S15I], 0.000286 average fractional NGS count over selection days 2 and 3 (reads of this peptide / all reads for the bait, averaged over ….
In the case of chain 1 PQLPHLQRSPPDGQEF [chain 1 S15E], the screen value was 0.000326 average fractional NGS count over selection days 2 and 3 (reads of this peptide / all reads for the bait, averaged over ….
As for chain 1 PQLPHLQRSPPDGQYF [chain 1 S15Y], the screen value is 0.000762 average fractional NGS count over selection days 2 and 3 (reads of this peptide / all reads for the bait, averaged over ….
Regarding chain 1 PQLPHLQRSPPDGQDF [chain 1 S15D], the screen value was 0.000182 average fractional NGS count over selection days 2 and 3 (reads of this peptide / all reads for the bait, averaged over ….
To chain 1 PQLPHLQRSPPDGQAF [chain 1 S15A] belongs 0.00154 average fractional NGS count over selection days 2 and 3 (reads of this peptide / all reads for the bait, averaged over …; to chain 1 PQLPHLQRSPPDGQHF [chain 1 S15H], 0.000369 average fractional NGS count over selection days 2 and 3 (reads of this peptide / all reads for the bait, averaged over …; to chain 1 PQLPHLQRSPPDGQNF [chain 1 S15N], 0.000592 average fractional NGS count over selection days 2 and 3 (reads of this peptide / all reads for the bait, averaged over ….
To chain 1 PQLPHLQRSPPDGQMF [chain 1 S15M] belongs 0.000289 average fractional NGS count over selection days 2 and 3 (reads of this peptide / all reads for the bait, averaged over …; to chain 1 PQLPHLQRSPPDGQTF [chain 1 S15T], 0.000479 average fractional NGS count over selection days 2 and 3 (reads of this peptide / all reads for the bait, averaged over …; to chain 1 PQLPHLQRSPPDGQWF [chain 1 S15W], 0.000372 average fractional NGS count over selection days 2 and 3 (reads of this peptide / all reads for the bait, averaged over ….
In the case of chain 1 PQLPHLQRSPPDGQKF [chain 1 S15K], the screen value is 0.000127 average fractional NGS count over selection days 2 and 3 (reads of this peptide / all reads for the bait, averaged over ….
As for chain 1 PQLPHLQRSPPDGQVF [chain 1 S15V], the figure is 0.000578 average fractional NGS count over selection days 2 and 3 (reads of this peptide / all reads for the bait, averaged over ….
To chain 1 PQLPVLQRSPPDGQSF [chain 1 H5V] belongs 0.000333 average fractional NGS count over selection days 2 and 3 (reads of this peptide / all reads for the bait, averaged over ….
For chain 1 PQLPGLQRSPPDGQSF [chain 1 H5G], the screen value was 0.000153 average fractional NGS count over selection days 2 and 3 (reads of this peptide / all reads for the bait, averaged over ….
As for chain 1 PQLPSLQRSPPDGQSF [chain 1 H5S], the figure is 0.000337 average fractional NGS count over selection days 2 and 3 (reads of this peptide / all reads for the bait, averaged over …; as for chain 1 PQLPQLQRSPPDGQSF [chain 1 H5Q], 0.00258 average fractional NGS count over selection days 2 and 3 (reads of this peptide / all reads for the bait, averaged over ….
In the case of chain 1 PQLPRLQRSPPDGQSF [chain 1 H5R], the screen value is 0.00137 average fractional NGS count over selection days 2 and 3 (reads of this peptide / all reads for the bait, averaged over ….
To chain 1 PQLPFLQRSPPDGQSF [chain 1 H5F] belongs 0.00112 average fractional NGS count over selection days 2 and 3 (reads of this peptide / all reads for the bait, averaged over ….

The record behind these values is article PMC12102759 (2025).
